Patent publication US20190031754A1 (Scripps Research, published 2019)
Where two headings read alike, the source gives them in different places.

Experiments:
[1] = target: T1, BSA (bovine, UniProt P02769); assay: ELISA, coated antigen 100 ng/well, anti-His HRP, absorbance 405 nm
T1 construct: also called bovine serum albumin

[2] = target: T2, hFc-hROR1 (human, UniProt Q01973 30-403, limits assumed); assay: as above
T2 construct: also called ROR1 (ELISA control); not shown: human Fc (hFc) of pCEP4-hFc-hROR1 (Yang et al., 2011)

[3] = target: T3, full-length human ROR2 on cells (human, UniProt Q01974 34-943); assay: flow cytometry, 63-12 cells expressing hROR2, Fab 1 µg/100 µL, anti-His Alexa Fluor 488
T3 construct: whole, on cells; the cells are named under assay; In the Western blot it is denatured; also called hROR2; cell surface human ROR2

[4] = target: T4, anti-human Fc (Jackson ImmunoResearch, 109-006-008); assay: ELISA, IgG titrated on coated anti-human Fc; fit printed as IC50
T4 construct: Coated on a control plate to capture the chimeric IgG1 antibodies through their human Fc; also called IgG

[5] = target: T5, recombinant human twin strep-tagged ROR2 extracellular domain (human, UniProt Q01974 34-403); assay: ELISA, IgG titrated on coated twin-strep human ROR2 ECD; fit printed as IC50
T5 construct: extracellular domain; Made in HEK293T, Streptactin purified; also called Human ROR2-TwinStrep; human ROR2

[6] = target: T4, anti-human Fc (Jackson ImmunoResearch, …); assay: ELISA, IgG titrated on coated anti-human Fc; fit printed as IC50; remark: listed apart in the source
[7] = target: T6, recombinant cynomolgus twin strep-tagged ROR2 extracellular domain (cynomolgus monkey, UniProt A0A7N9D5U8 34-403); assay: ELISA, IgG titrated on coated twin-strep cynomolgus ROR2 ECD; fit printed as IC50
T6 construct: extracellular domain; Made in HEK293T, Streptactin purified; also called cynomolgus ROR2; cynomolgus ROR2-TwinStrep

[8] = target: T6, recombinant cynomolgus twin …; assay: SPR, Biacore T200, IgG captured by anti-human Fcγ, ROR2-TwinStrep as analyte, 1:1 Langmuir
[9] = target: T5, recombinant human twin strep-tagged …; assay: as above
[10] = target: T5, recombinant human twin strep-tagged …; assay: ELISA, IgG titrated on coated twin-strep human ROR2 ECD; fit printed as IC50; remark: listed apart in the source

T2 sequence (Q01973 30-403 limits assumed): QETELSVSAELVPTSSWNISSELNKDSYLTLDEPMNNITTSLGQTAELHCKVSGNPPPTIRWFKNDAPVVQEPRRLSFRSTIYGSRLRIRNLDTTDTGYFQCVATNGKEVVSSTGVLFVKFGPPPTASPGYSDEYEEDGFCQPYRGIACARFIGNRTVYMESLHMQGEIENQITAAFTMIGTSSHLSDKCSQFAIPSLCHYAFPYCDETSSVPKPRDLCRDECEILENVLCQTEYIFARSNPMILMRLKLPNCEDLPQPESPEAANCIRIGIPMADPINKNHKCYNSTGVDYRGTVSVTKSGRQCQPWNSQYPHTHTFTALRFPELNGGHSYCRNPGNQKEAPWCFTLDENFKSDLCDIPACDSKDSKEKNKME
T1 sequence (P02769 25-607 limits assumed): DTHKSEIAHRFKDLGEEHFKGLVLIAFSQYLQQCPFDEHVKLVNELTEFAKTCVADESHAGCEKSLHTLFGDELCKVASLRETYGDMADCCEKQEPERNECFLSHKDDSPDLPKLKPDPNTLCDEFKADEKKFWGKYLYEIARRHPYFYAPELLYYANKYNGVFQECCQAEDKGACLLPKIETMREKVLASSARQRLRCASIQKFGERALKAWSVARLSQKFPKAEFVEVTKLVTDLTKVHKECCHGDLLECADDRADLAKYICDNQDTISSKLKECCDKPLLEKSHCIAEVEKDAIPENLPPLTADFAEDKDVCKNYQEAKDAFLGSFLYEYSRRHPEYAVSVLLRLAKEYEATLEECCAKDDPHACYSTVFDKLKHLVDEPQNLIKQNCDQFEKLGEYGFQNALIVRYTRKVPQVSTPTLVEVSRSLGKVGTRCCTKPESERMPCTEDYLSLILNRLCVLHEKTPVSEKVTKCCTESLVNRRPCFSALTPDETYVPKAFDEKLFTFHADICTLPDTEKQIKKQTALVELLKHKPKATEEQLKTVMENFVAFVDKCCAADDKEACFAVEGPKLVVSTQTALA

Row | Binder | binding result [1] | binding result [2] | also measured
1 | chimeric rabbit/human Fab ERR2-316 (Fab, V domains shown) VH: QKQLVESGGRLVTPGGSLTLTCTVSGFSLSKYGVSWVRQAPGSGLEYIGTIGGSGTSYYASWAKSRSTITRNTNLNTVTLKMTSLTAADTATYFCARYFGWNTGFDIWGPGTLVTISS VL: DPVMTQTPSSVSEPVGGTVTIKCQASQSISNALAWYQQKPGQPPKRLIYKASTPASGVPSRFKGSRSGTEYTLTISGVQREDAATYYCLGFSVVSNDGWAFGAGTNVEIK | no binding (tested: 100 ng/50 µL) | no binding (tested: 100 ng/50 µL) | –
2 | chimeric rabbit/human Fab XBR2-TOP72 (Fab, V domains shown) VH: QEQLEESGGRLVTPGTPLTLTCTVSGIDLSSNAMSWVRQAPGKGLEYVGFINGGGGVHYASWARGRFTISKTSTTVDLKITSPTTEDTATYFCARAGTTYYTSFNLWGPGTLVTISS VL: QFVLTQSPSASAALGSSAKLTCTLSSAHKTYTIAWYQQQQGEAPRLLMMLRTDGSYTKGTGVPDRFSGSSSGADRYLIISSVQADDAAGYYCGADYSGGYVFGGGTQLTVTG | no binding (tested: 100 ng/50 µL) | no binding (tested: 100 ng/50 µL) | binding result [3]: binds
3 | chimeric rabbit/human Fab ERR2-302 (Fab, V domains shown) VH: QKQLVESGGGLVKPGGSLTLTCTVSGFSLSSYAIGWVRQAPGNGLEWIGIINSYGSTYYASWAKSRSTITRNTNLNTVTLKMTSLTAADTATYFCARSPYGYVSAWGYHRLDLWGQGTLVTISS VL: SYELTQLPSVSVSLGQTARITCGGASIGSKVVHWYQQKPGLAPGLLIYDDDERPSGVPDRFSGSNSGDTATLTISGAQAGDEAEYYCQLWDGSDVVFGGGTQLTVTG | no binding (tested: 100 ng/50 µL) | no binding (tested: 100 ng/50 µL) | –
4 | chimeric rabbit/human Fab ERR2-TOP35 (Fab, V domains shown) VH: QSVKESEGGLFKPMDTLTLTCTVSGFSLNTYGVSWVRQAPGNGLEWIGAVGSSGATNYASWAKSRSTITRNTNENTVTLKMTSLTAADTATYFCARDGYYSSGWGPYFSIWGPGTLVTVSS VL: SFVLTQPASVQVNLGQTVSLTCTAETLRSSYASWYQQKPGQAPVLLIYRDTSRPSGVPDRFSGSSSGNTATLTISGAQAGDEADYYCATSDGSGSRYYVFGGGTQLTVTG | no binding (tested: 100 ng/50 µL) | no binding (tested: 100 ng/50 µL) | –
5 | chimeric rabbit/human Fab XBR2-433 (Fab, V domains shown, also called Fab 4-33) VH: QSVKESEGGLFKPTDTLTLTCTVSGFSLSTYGVSWVRQAPGNGLEWIGAIGSSGSANYASWAKDRSTITRNTNLNTVTLKMTSLTAADTATYFCARDGYYSSGWGPYFNIWGPGTLVTISS VL: SFVLTQPASVQVNLGQTVSLTCTADTLSRSYASWYQQKPGQAPVLLIYRDTSRPSGVPDRFSGSSSGNTATLTISGAQAGDEADYYCATSGGSGSNPQYVFGGGTQLTVTG | no binding (tested: 100 ng/50 µL) | no binding (tested: 100 ng/50 µL) | –
6 | chimeric rabbit/human Fab XBR2-327 (Fab, V domains shown) VH: QEQLKESGGGLFKPTDTLTLTCTVSGFSLSSGAISWVRQAPGNGLEYIGFVNSLGNTYYANWAKSRSAITRNTNENTVTLKMTSLAAADTATYFCAKDYGNWAFDPWGPGTLVTVSS VL: DPVLTQTPSSVSAAVGGTVAINCQASQSISSYLSWYQQKPGQPPKLLIYGASKLASGVPSRFSGSGSGTEYTLTISGVQREDAATYYCLGGYASASYRTAFGGGTKLEIK | no binding (tested: 100 ng/50 µL) | no binding (tested: 100 ng/50 µL) | –
7 | XBR2-327 (mAb007) (antibody, human IgG1, V domains shown, Full-length chimeric rabbit/human IgG1, human IgH-gamma1 and IgL-kappa constant regions; C-terminal tags HC: LPETG-Strep, LC: G5SLPETG-Strep) VH: QEQLKESGGGLFKPTDTLTLTCTVSGFSLSSGAISWVRQAPGNGLEYIGFVNSLGNTYYANWAKSRSAITRNTNENTVTLKMTSLAAADTATYFCAKDYGNWAFDPWGPGTLVTVSS VL: DPVLTQTPSSVSAAVGGTVAINCQASQSISSYLSWYQQKPGQPPKLLIYGASKLASGVPSRFSGSGSGTEYTLTISGVQREDAATYYCLGGYASASYRTAFGGGTKLEIK | – | – | IC50 [4]: 0.0433 µg/mL; IC50 [5]: 0.00057 µg/mL; IC50 [6]: 0.0102 µg/mL
8 | chimeric rabbit/human Fab ERR2-317 (Fab, V domains shown) VH: QSLEESGGRLVTPGTPLTLTCTASGFSLSSYDMIWVRQAPGKGLEYIGIINAGGNTYYASWAKGRFTISRTSTTVDLKMTSPTTEDTATYFCARGSSWTGDIWGPGTLVTVSS VL: DPVLTQTPSSTSAAVGGTVTIKCQASQSISSYLSWYQQKPGQPPKQLIYAASTLASGVPSRFKGSGSGTEYTLTISGVQREDAATYYCLGGYASASYQTAFGGGTKVEIK | no binding (tested: 100 ng/50 µL) | no binding (tested: 100 ng/50 µL) | –
9 | chimeric rabbit/human Fab ERR2-308 (Fab, V domains shown) VH: QEQLEESGGRLVTPGTPLTLTCAVSGFSLSNYAMGWVRQAPGEGLEYIGWISAGGGAYYASWVNGRFTISKTSSTVDLKMTSLTAADTATYFCARGASNGCDLWGPGTLVTVSS VL: DPMLTQTPSSVSAVVGGTVTIKCQASQSITSWLSWYQQKPGQPPKLLIYGASHLASGVPSRFKGSGYGTEFTLTISGIQREDAATYYCLGGYSNSDIVFGGGTELEIL | no binding (tested: 100 ng/50 µL) | no binding (tested: 100 ng/50 µL) | –
10 | chimeric rabbit/human Fab ERR2-TOP2 (Fab, V domains shown) VH: QSLEESGGRLVTPGTPLTLTCTVSGFSLSSYAISWVRQAPGKGLEWIGTIGTRGDTAYANWAKGRFTISKTSTTVTLKMTSPTTEDTATYFCARELVAGGGSDLWGPGTLVTVSS VL: DVVMTQTPSSVSAVVGGTVTIKCQASQSITSWLSWYQQKPGQPPKLLIYGASHLASGVPSRFKGSGYGTEFTLTISGIQREDAATYYCLGGYLSASYQTAFGGGTKVEIK | no binding (tested: 100 ng/50 µL) | no binding (tested: 100 ng/50 µL) | binding result [3]: binds
11 | chimeric rabbit/human Fab XBR2-416 (Fab, V domains shown, also called Fab 4-16) VH: QEQLEESGGRLVTPGTPLTLTCTVSGFSLSSYWMSWVRQAPGKGLEWIGTITPGGNTDYATWAKARFTVSKTSTTVDLKITSPTTEDTATYFCARGIGGAADLWGPGTLVTISS VL: AQVLTQTPSSTSAAVGGTVTIKCQASQSISSSDLSWYQQKPGQPPKLLIYATSYLASGVPSRFKGSGSGTEYTLTISGVQREDAATYYCLGGYPNTSYRSAFGGGTKVEIK | no binding (tested: 100 ng/50 µL) | no binding (tested: 100 ng/50 µL) | –
12 | chimeric rabbit/human Fab XBR2-TOP9 (Fab, V domains shown) VH: QSVEESRGRLVTPGTPLTLICTVSGIDLSSYNIQWVRQAPGKGLEYIGYINTDGSAYYASWAKGRFTISKTSTTVDLKITSPTTEDTATYFCARGGYASGFNLWGPGTLVTISS VL: DVVMTQTPSSTSAAVGGTVTIKCQASQNIGPWLSWYQQKPGQPPKQLIYAASTLASGVPSRFKGSGSGTDYTLTISGVQREDAATYYCLGWHSWSDDGWAFGAGTNVEIK | no binding (tested: 100 ng/50 µL) | no binding (tested: 100 ng/50 µL) | binding result [3]: binds
13 | chimeric rabbit/human Fab XBR2-401 (Fab, V domains shown, also called Fab 4-1) VH: QSVKESEGGLFKPTDTLTLTCTVSGFSLSSYGVTWVRQAPGSGLEWIGYINTAGNTYYASWAKSRSTITRNTNENTVTLKMTSLTAADTATYFCARDWTSLNIWGPGTLVTVSS VL: DPMLTQTPSSTSTAVGDTVTIKCQASQSISSDLSWYQQKPGQRPKLLIYQASTLASGVPSRFKGSGYGTEYTLTISGVQREDAAIYYCLGGYADASYRTAFGGGTKLEIK | no binding (tested: 100 ng/50 µL) | no binding (tested: 100 ng/50 µL) | –
14 | XBR2-401 (mAb003) (antibody, human IgG1, V domains shown, Full-length chimeric rabbit/human IgG1 (kappa) with C-terminal tags HC: LPETG-Strep, LC: G5SLPETG-Strep) VH: QSVKESEGGLFKPTDTLTLTCTVSGFSLSSYGVTWVRQAPGSGLEWIGYINTAGNTYYASWAKSRSTITRNTNENTVTLKMTSLTAADTATYFCARDWTSLNIWGPGTLVTVSS VL: DPMLTQTPSSTSTAVGDTVTIKCQASQSISSDLSWYQQKPGQRPKLLIYQASTLASGVPSRFKGSGYGTEYTLTISGVQREDAAIYYCLGGYADASYRTAFGGGTKLEIK | – | – | IC50 [4]: 0.0856 µg/mL; IC50 [5]: 0.0419 µg/mL; IC50 [7]: 0.0433 µg/mL; Kd [8]: ≤ 1.1 nM; Kd [9]: ≤ 10.2 nM; IC50 [6]: 0.0068 µg/mL; IC50 [10]: 0.0505 µg/mL
